Assay [1] concerns the target T1, Human CD32A 131R extracellular domain, 6xHis_Flag tagged (human, UniProt P12318 34-217).
T1 construct: also called Hu CD32A_131Arg; human CD32A_131 Arg
T1 chain: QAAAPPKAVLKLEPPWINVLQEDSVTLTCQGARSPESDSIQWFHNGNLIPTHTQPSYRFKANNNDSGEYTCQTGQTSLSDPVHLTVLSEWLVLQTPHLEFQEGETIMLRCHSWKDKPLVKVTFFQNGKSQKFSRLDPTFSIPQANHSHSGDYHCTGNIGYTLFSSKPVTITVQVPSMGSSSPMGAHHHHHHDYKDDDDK
Put plainly: Biacore; IgG1-TM captured on a Protein G chip, CD32A as analyte, 1:1 Langmuir fit, average of two experiments.

Assay [2] addresses T2, Human CD32A 131H extracellular domain, 6xHis_Flag tagged (human, UniProt P12318 34-217).
T2 construct: Used unlabelled as the analyte in Biacore; also called Hu CD32A_131His
T2 sequence: T1 chain with R134H
The description is as above.

Assay [3] addresses T3, cynomolgus CD32A version 3, 6xHis tagged (cynomolgus monkey).
T3 construct: also called Cyno CD32A; cyno CD32A (version 3)
T3 chain: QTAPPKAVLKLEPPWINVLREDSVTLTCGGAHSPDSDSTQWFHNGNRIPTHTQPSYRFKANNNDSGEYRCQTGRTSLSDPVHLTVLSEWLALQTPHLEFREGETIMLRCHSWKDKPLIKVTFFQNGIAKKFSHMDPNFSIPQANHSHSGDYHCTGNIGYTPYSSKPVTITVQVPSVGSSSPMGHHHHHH
Described as above.

Assay [4] concerns the target T4, human FcγRIIA 131R on blood cells of 131R/R donors (human, UniProt P12318 34-317).
T4 sequence: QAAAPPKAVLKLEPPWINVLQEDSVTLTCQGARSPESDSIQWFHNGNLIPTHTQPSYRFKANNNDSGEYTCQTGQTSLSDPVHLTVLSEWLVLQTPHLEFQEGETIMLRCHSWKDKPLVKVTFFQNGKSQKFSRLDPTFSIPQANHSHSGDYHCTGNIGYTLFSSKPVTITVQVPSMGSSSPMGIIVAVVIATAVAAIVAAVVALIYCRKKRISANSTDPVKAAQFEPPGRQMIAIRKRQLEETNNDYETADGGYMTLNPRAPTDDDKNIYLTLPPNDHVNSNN
Put plainly: cell-based or functional assay.

The target of assay [5] is T5, human FcγRIIA 131H on blood cells of 131H/H donors (human, UniProt P12318 34-317).
T5 sequence (looked up): T4 sequence with R134H
Kind of assay: cell-based or functional assay.

Assay [6] addresses T5, human FcγRIIA 131H on blood cells of …. Put plainly: cell-based or functional assay. This is another data set of the same source.
In assay [7] the target is T2, Human CD32A 131H extracellular domain, …. Put plainly: HTRF epitope competition: sample IgG titrated against binding of mouse IV.3 IgG to biotinylated human CD32A 131H. The protocol:
Subsequently, a potential […] site was removed in VL CDR1 (N28L) to reduce the risk of chemical modification during manufacture.
5 μl is added to the assay plate (384 black, shallow well, Costar, 3676), to give a final concentration of 2.0 nM. […] 5 μl of each IgG sample is transferred to the assay plate using a MiniTrak™ (Perkin Elmer). […] Assay plates were incubated for 3 hours at room temperature prior to reading time resolved fluorescence at 620 nm and 665 nm emission wavelengths using an EnVision plate reader (Perkin Elmer).

The target in assay [8] is cynomolgus monkey FcγRIIA on blood cells (cynomolgus monkey). Put plainly: cell-based or functional assay.
For assay [9], the target named is T4, human FcγRIIA 131R on blood cells of …. Kind of assay: cell-based or functional assay. The source holds these as a separate data set.
Assay [10] has as its target T2, Human CD32A 131H extracellular domain, …. Kind of assay: HTRF epitope competition; competitor IV.3 IgG on biotinylated human CD32A 131H. In general terms: In TR-FRET formats the signal depends on donor and acceptor labels being close together.

Changes are numbered by the printed parent chain. Numbers in names are those of the source.

B1: chimeric IV.3 (human IgG1-TM) (antibody, V domains shown)
VH: QIQLVQSGPELKKPGETVKISCKASGYTFTNYGMNWVKQAPGKGLKWMGWLNTYTGESIYPDDFKGRFAFSSETSASTAYLQINNLKNEDMATYFCARGDYGYDDPLDYWGQGTSVTVSS
VL: DIVMTQAAPSVPVTPGESVSISCRSSKSLLHTNGNTYLHWFLQRPGQSPQLLIYRMSVLASGVPDRFSGSGSGTAFTLSISRVEAEDVGVFYCMQHLEYPLTFGAGTKLELK
notes: also called parent IV.3 chimeric Ab; chimeric IV.3 antibody
For orientation: Kd means the free concentration of one partner at which half of the binding sites on the other are occupied at equilibrium, for simple one-to-one binding. Broadly, the koff is the first-order rate constant of dissociation. One may read the kon as the second-order rate constant of association. Turning to B1, the Kd in assay [1] turned out to be 0.22 nM; in assay [2], 0.22 nM; in [3], 44.1 nM. The off-rate (koff) in assay [1] came to 0.00129 s⁻¹; in assay [2], 0.000681 s⁻¹; in assay [3] it was 0.204 s⁻¹. The results for the kon in [1], in assay [2] and in [3] were 5.95e+06 M⁻¹ s⁻¹, 3.03e+06 M⁻¹ s⁻¹ and 4.63e+06 M⁻¹ s⁻¹, respectively. Also, the “EC50 of FcγRIIA internalization from the monocyte surface (whole blood FACS assay)” value worked out at 0.2 nM in assay [4] and 0.19 nM in assay [5]. The “IC50 of the loss of surface FcγRIIA (M.F.I of IV.3-Alexa 647) on monocytes, whole blood, 2 h at 37 °C” value in [6] worked out at 0.191 nM; in [9], 0.198 nM. Further, in [7], the “IC50 (read off the curve)” value was approximately 2 nM. Further, in assay [8], the “IC50 of the loss of surface FcγRIIA (M.F.I of IV.3-Alexa 647) on cynomolgus monocytes, whole blood, 2 h at 37 °C” value was determined as 7.82 nM.

B2: fully humanized IV.3 IgG1 (VH and VL fully humanized, before Y36F and N28L) (antibody)
chain 1: QVQLVQSGAEVKKPGASVKVSCKASGYTFTNYGMNWVRQAPGQRLEWMGWLNTYTGESIYPDDFKGRVTITRDTSASTAYMELSSLRSEDTAVYYCARGDYGYDDPLDYWGQGTLVTVSS
chain 2: DIVMTQSPLSLPVTPGEPASISCRSSKSLLHTNGNTYLHWYLQKPGQSPQLLIYRMSVLASGVPDRFSGSGSGTDFTLKISRVEAEDVGVYYCMQHLEYPLTFGQGTKLEIK
Consider B2, for which the “fold loss of potency in the IV.3 epitope competition assay (the next sentence compares with the mouse IgG)” value in assay [10] came out at 10 fold.
